From PMC12102759

B1: NOTCH4 peptide 1604-1619 (Neurogenic locus notch homolog protein 4), 16-mer library wild type / NSP9 (ORF1ab Nsp9, residues 4141-4253) (parent)
chain 1: TFQGAWLGAPEPWEPL
chain 2: NNELSPVALRQMSCAAGTTQTACTDDNALAYYNTTKGGRFVLALLSDLQDLKWARFPKSDGTGTIYTELEPPCRFVTDTPKGPKVKYLYFIKGLNNLNRGMVLGSLAATVRLQ
B2: NCOA2 peptide 1075-1090 (Nuclear receptor coactivator 2), 16-mer library wild type / NSP3 UBl1 (ORF1ab Nsp3a Ub1, residues 819-925) (parent)
chain 1: DEGALLDQLYLALRNF
chain 2: APTKVTFGDDTVIEVQGYKSVNITFELDERIDKVLNEKCSAYTVELGTEVNEFACVVADAVIKTLQPVSELLTPLGIDLDEWSMATYYLFDESGEFKLASHMYCSFY
B3: NEK9 peptide 736-751 (Serine/threonine-protein kinase Nek9), 16-mer library wild type / NSP9 (ORF1ab Nsp9, residues 4141-4253) (parent)
chain 1: NSSGLSIGTVFQSSSP
chain 2: B1 chain 2

Variants of: B1
Details: with NSP9 (ORF1ab Nsp9, residues 4141-4253); bait immobilised on MaxiSorp plates (10 µg), library pre-cleared on GST, 2 h binding at 4 °C, five washes; one round per day, days 1-4; value from days 2 and 3; keep out of graded; scale: average fractional NGS count over selection days 2 and 3

chain 1 TFQGANLGAPEPWEPL [chain 1 W6N] and chain 1 TFQGAILGAPEPWEPL [chain 1 W6I] are the same in screen value: 0 for the first, 0 for the second.

chain 1 TFQGAWLGAPEPWEPT [chain 1 L16T] and chain 1 TFQGAWLGAPEPWEPV [chain 1 L16V] are the same in screen value: 0 for the first, 0 for the second.

chain 1 TFQGAWLGAPEPWEPG [chain 1 L16G] and chain 1 TFQGAWLGAPYPWEPL [chain 1 E11Y] are the same in screen value: 0 for the first, 0 for the second.

chain 1 TFQGAWLGAPHPWEPL [chain 1 E11H] and chain 1 TFQGAWLGAPDPWEPL [chain 1 E11D] are the same in screen value: 0 for the first, 0 for the second.

chain 1 TFQGAWLGAPLPWEPL [chain 1 E11L] and chain 1 TFQGAWLGAPSPWEPL [chain 1 E11S] are the same in screen value: 0 for the first, 0 for the second.

chain 1 TFQGAWLGAPNPWEPL [chain 1 E11N] and chain 1 TFQGAWLGPPEPWEPL [chain 1 A9P] are the same in screen value: 0 for the first, 0 for the second.

First: chain 1 TFQGAWLGMPEPWEPL [chain 1 A9M]
Second: chain 1 TFQGAWLGWPEPWEPL [chain 1 A9W]
The screen value of the first is lower: 0 for the first, 4.99e-05 for the second.

chain 1 TFQGAWLKAPEPWEPL [chain 1 G8K] and chain 1 TFQGAWLMAPEPWEPL [chain 1 G8M] are the same in screen value: 0 for the first, 0 for the second.

chain 1 TFQGAWLEAPEPWEPL [chain 1 G8E] and chain 1 TFQGAWLRAPEPWEPL [chain 1 G8R] are the same in screen value: 0 for the first, 0 for the second.

Compared with chain 1 TFQGAWLVAPEPWEPL [chain 1 G8V], chain 1 TFQGAWLGAPEPWLPL [chain 1 E14L] is higher in screen value: 0 for the first, 7.93e-05 for the second.

First: chain 1 TFQGAWLGAPEPWQPL [chain 1 E14Q]
Second: chain 1 TFQGAWLGAPEPWFPL [chain 1 E14F]
The screen value of the first is lower: 0 for the first, 3.92e-05 for the second.

chain 1 TFQGAWLGAPEPWHPL [chain 1 E14H] and chain 1 TFQGAWLGAPEPWGPL [chain 1 E14G] are the same in screen value: 0 for the first, 0 for the second.

Going from chain 1 TFQGAWLGAPEPWVPL [chain 1 E14V] to chain 1 TFQGAWLGAPEPIEPL [chain 1 W13I], the screen value falls from 0.000155 to 3.37e-05.

Going from chain 1 TFQGAWLGAPEPMEPL [chain 1 W13M] to chain 1 TFQGAWLGAPEPTEPL [chain 1 W13T], the screen value rises from 0 to 4.47e-05.

chain 1 TFQGAWLGAPEPQEPL [chain 1 W13Q] and chain 1 TFQGAWLGAPEPFEPL [chain 1 W13F] are the same in screen value: 0 for the first, 0 for the second.

First: chain 1 TFQGAWLGAPEPSEPL [chain 1 W13S]
Second: chain 1 TFQGAWLGAPEAWEPL [chain 1 P12A]
The screen value of the first is lower: 2.43e-05 for the first, 3.02e-05 for the second.

First: chain 1 TFQGAWLGAPEVWEPL [chain 1 P12V]
Second: chain 1 TFQGAWLGAPETWEPL [chain 1 P12T]
The screen value of the first is higher: 0.000373 for the first, 0 for the second.

Compared with chain 1 TFQGAWLGAPERWEPL [chain 1 P12R], chain 1 TFQGAWLGAPEWWEPL [chain 1 P12W] is lower in screen value: 8.09e-05 for the first, 0 for the second.

First: chain 1 TFQGAWLGAPEQWEPL [chain 1 P12Q]
Second: chain 1 TFQGAWLGAPEKWEPL [chain 1 P12K]
The screen value of the first is lower: 3.5e-05 for the first, 8.35e-05 for the second.

Going from chain 1 TFQGAWLGAPEHWEPL [chain 1 P12H] to chain 1 TFQGAWLGAPEFWEPL [chain 1 P12F], the screen value falls from 9.54e-05 to 1.76e-05.

Compared with chain 1 TFQGAWLGAPEYWEPL [chain 1 P12Y], chain 1 TFQGAWLGAPEPWEYL [chain 1 P15Y] is lower in screen value: 2.09e-05 for the first, 0 for the second.

chain 1 TFQGAWLGAPEPWESL [chain 1 P15S] and chain 1 TFQGAWLGAIEPWEPL [chain 1 P10I] are the same in screen value: 0 for the first, 0 for the second.

Going from chain 1 TFQGAWLGAEEPWEPL [chain 1 P10E] to chain 1 TFQGAWLGADEPWEPL [chain 1 P10D], the screen value falls from 4.5e-05 to 0.

chain 1 TFQGAWLGAGEPWEPL [chain 1 P10G] and chain 1 TFQGAWLGAQEPWEPL [chain 1 P10Q] are the same in screen value: 0 for the first, 0 for the second.

Going from chain 1 TFQGAWLGAWEPWEPL [chain 1 P10W] to chain 1 TFQGAWLGAAEPWEPL [chain 1 P10A], the screen value falls from 0.00035 to 0.

chain 1 TFQGAWLGALEPWEPL [chain 1 P10L] and chain 1 TLQGAWLGAPEPWEPL [chain 1 F2L] are the same in screen value: 0 for the first, 0 for the second.

First: chain 1 TVQGAWLGAPEPWEPL [chain 1 F2V]
Second: chain 1 TAQGAWLGAPEPWEPL [chain 1 F2A]
The screen value of the first is lower: 0 for the first, 0.000265 for the second.

Going from chain 1 TPQGAWLGAPEPWEPL [chain 1 F2P] to chain 1 TWQGAWLGAPEPWEPL [chain 1 F2W], the screen value falls from 6.51e-05 to 0.

Compared with chain 1 TIQGAWLGAPEPWEPL [chain 1 F2I], chain 1 TDQGAWLGAPEPWEPL [chain 1 F2D] is higher in screen value: 0 for the first, 6.3e-05 for the second.

Going from chain 1 TEQGAWLGAPEPWEPL [chain 1 F2E] to chain 1 TGQGAWLGAPEPWEPL [chain 1 F2G], the screen value rises from 3.22e-05 to 5.47e-05.

First: chain 1 TFVGAWLGAPEPWEPL [chain 1 Q3V]
Second: chain 1 TFEGAWLGAPEPWEPL [chain 1 Q3E]
The screen value of the first is lower: 0 for the first, 2.09e-05 for the second.

chain 1 TFLGAWLGAPEPWEPL [chain 1 Q3L] and chain 1 TFQGAWDGAPEPWEPL [chain 1 L7D] are the same in screen value: 0 for the first, 0 for the second.

chain 1 TFQGAWIGAPEPWEPL [chain 1 L7I] and chain 1 TFQGAWMGAPEPWEPL [chain 1 L7M] are the same in screen value: 0 for the first, 0 for the second.

chain 1 TFQYAWLGAPEPWEPL [chain 1 G4Y] and chain 1 TFQPAWLGAPEPWEPL [chain 1 G4P] are the same in screen value: 0 for the first, 0 for the second.

chain 1 TFQRAWLGAPEPWEPL [chain 1 G4R] and chain 1 TFQDAWLGAPEPWEPL [chain 1 G4D] are the same in screen value: 0 for the first, 0 for the second.

chain 1 TFQVAWLGAPEPWEPL [chain 1 G4V] and chain 1 TFQLAWLGAPEPWEPL [chain 1 G4L] are the same in screen value: 0 for the first, 0 for the second.

chain 1 TFQGTWLGAPEPWEPL [chain 1 A5T] and chain 1 TFQGEWLGAPEPWEPL [chain 1 A5E] are the same in screen value: 0 for the first, 0 for the second.

First: chain 1 TFQGVWLGAPEPWEPL [chain 1 A5V]
Second: chain 1 TFQGGWLGAPEPWEPL [chain 1 A5G]
The screen value of the first is higher: 0.000292 for the first, 0 for the second.

chain 1 TFQGSWLGAPEPWEPL [chain 1 A5S] and chain 1 TFQGDWLGAPEPWEPL [chain 1 A5D] are the same in screen value: 0 for the first, 0 for the second.

Going from chain 1 TFQGKWLGAPEPWEPL [chain 1 A5K] to chain 1 TFQGLWLGAPEPWEPL [chain 1 A5L], the screen value rises from 0 to 5.68e-05.

In the case of chain 1 TFQGFWLGAPEPWEPL [chain 1 A5F], the screen value is reported as 4.11e-05.

Variants of: B2
Details: with NSP3 UBl1 (ORF1ab Nsp3a Ub1, residues 819-925); bait immobilised on MaxiSorp plates (10 µg), library pre-cleared on GST, 2 h binding at 4 °C, five washes; one round per day, days 1-4; value from days 2 and 3; keep out of graded; scale: average fractional NGS count over selection days 2 and 3

Going from chain 1 DEGALLDQIYLALRNF [chain 1 L9I] to chain 1 DEGALLDQKYLALRNF [chain 1 L9K], the screen value falls from 7.34e-06 to 0.

Going from chain 1 DENALLDQLYLALRNF [chain 1 G3N] to chain 1 DEGALEDQLYLALRNF [chain 1 L6E], the screen value falls from 7.33e-06 to 0.

Variants of: B3
Details: with NSP9 (ORF1ab Nsp9, residues 4141-4253); bait immobilised on MaxiSorp plates (10 µg), library pre-cleared on GST, 2 h binding at 4 °C, five washes; one round per day, days 1-4; value from days 2 and 3; keep out of graded; scale: average fractional NGS count over selection days 2 and 3

Going from chain 1 NHSGLSIGTVFQSSSP [chain 1 S2H] to chain 1 NPSGLSIGTVFQSSSP [chain 1 S2P], the screen value rises from 0 to 0.00012.

Going from chain 1 NGSGLSIGTVFQSSSP [chain 1 S2G] to chain 1 NQSGLSIGTVFQSSSP [chain 1 S2Q], the screen value rises from 2.56e-05 to 2.69e-05.

Compared with chain 1 NSSGLSLGTVFQSSSP [chain 1 I7L], chain 1 NSSGLSSGTVFQSSSP [chain 1 I7S] is lower in screen value: 9.86e-05 for the first, 0 for the second.

Compared with chain 1 NSSGLSGGTVFQSSSP [chain 1 I7G], chain 1 NSSGLSIGTVFQESSP [chain 1 S13E] is higher in screen value: 0 for the first, 0.000579 for the second.

Variant chain 1 NSSGLSIGTVFQLSSP [chain 1 S13L] has a screen value of 1.28e-05.
